System: Ezh2 (native PRC2) (Mus musculus)
Assay: pulldown
Conditions: RIP-seq WT RPKM

Substance | binding signal (Ezh2-/- RPKM 3.27) [RPKM] | binding signal (Ezh2-/- RPKM 0) [RPKM]
Tsix RNA | 10.3 | 
Xist/RepA endogenous RNA |  | 4.18
